For assay [1], the target named is T1, human CD8αα homodimer, recombinant protein (Acro Biosystems) (human, UniProt P01732 22-182).
T1 construct: also called CD8αα antigen; biotinylated CD8α recombinant protein (CDA-H82E3)
Kind of assay: BLI kinetics, Fab, 37 °C. The method, then:
(§1) Biolayer interferometry kinetic assays were performed using a GatorBio Gator Plus BLI system. Kinetic buffer containing PBS plus 0.1% Tween 20 and 0.2% BSA was used for calculating the baseline. To measure the binding kinetics of anti-CD8α antibody fragment (Fab), streptavidin-immobilized SA-XT sensors (#160029, Gator Bio) were prehydrated in the kinetic buffer and loaded with […] biotinylated CD8α recombinant protein (CDA-H82E3, Acro Biosystems) at a spin speed of 400 rpm to a threshold response of 10 nm. The sensors were then incubated in the kinetic buffer for 300 s to acquire a baseline measurement prior to each association. […] The antigen-loaded sensors were incubated in the diluted solutions to capture Fab fragments for 300 s to record the association phase. Sensors were finally incubated in the kinetic buffer for 900 s to record the dissociation phase. The spin speed for all steps except the antigen loading step was 1000 rpm. The temperature of the performed assays was either 30° C. or 37° C. during the association and dissociation phases. Sensor data were baseline subtracted, and global curve fitting of the kinetic data from six different analyte concentrations at a 1:1 monovalent binding model was performed using GatorOne software (version v2.10) to determine kinetic rate constants (kₒₙ and koff) and equilibrium dissociation constants (KD) of the analyzed antibodies.
(§2) The binding kinetics of CBD1033 Fab and its parental CBD1017ch Fab against human CD8αα homodimer, human CD8αβ heterodimer, and cynomolgus macaque CD8ααhomodimer were assessed following the same method in BLI evaluation of humanized Fab variants. For evaluating the binding kinetics against cynomolgus macaque CD8αβ heterodimer protein, the antigen protein was directly coupled onto amine-reactive biosensor tips (Gator Bio) following the manufacturer protocol. Briefly, the sensors were activated for 300 s with a mixture of 1-ethyl-3-(3-dimethylaminopropyl)carbodiimide hydrochloride (EDC) (ThermoFisher Scientific) and 10 mM N-Hydroxysulfosuccinimide sodium salt (sulfo-NHS) (Sigma-Aldrich) in water.
Background: Biolayer interferometry detects binding as a change in optical thickness at a sensor tip.

Assay [2] has as its target T2, human CD8αβ heterodimer, recombinant protein (human, UniProt P01732 22-182; P10966 22-170, limits assumed). Kind of assay: BLI kinetics, Fab, 37 °C. The method, then: as §1, §2
For assay [3], the target named is T1, human CD8αα homodimer, recombinant …. Kind of assay: BLI kinetic sensorgram, 1:1 global fit, 30 °C. The method, then: (§3) The global fitting was performed with a 1:1 fitting model using GatorOne software as described below.
as §1

For assay [4], the target named is T3, cynomolgus macaque CD8αα homodimer, recombinant protein (cynomolgus macaque).
T3 construct: also called cynomolgus CD8αα homodimer
Briefly: BLI kinetics, Fab, 37 °C as printed in the table. As to the method:
as §1, §2

In assay [5] the target is T1, human CD8αα homodimer, recombinant …. Kind of assay: BLI kinetic sensorgram, 1:1 global fit, 37 °C [CONT'ED]. As to the method:
as §3, §1

For assay [6], the target named is T4, cynomolgus macaque CD8αβ heterodimer, recombinant protein (cynomolgus macaque).
T4 construct: In BLI coupled directly to amine-reactive sensor tips; also called cynomolgus CD8αβ heterodimer
Kind of assay: BLI kinetics, Fab, antigen amine-coupled to the sensor, 30 °C. The method, then: The binding kinetics of CBD1033 Fab and its parental CBD1017ch Fab against human CD8αα homodimer, human CD8αβ heterodimer, and cynomolgus macaque CD8ααhomodimer were assessed following the same method in BLI evaluation of humanized Fab variants. For evaluating the binding kinetics against cynomolgus macaque CD8αβ heterodimer protein, the antigen protein was directly coupled onto amine-reactive biosensor tips (Gator Bio) following the manufacturer protocol. Briefly, the sensors were activated for 300 s with a mixture of 1-ethyl-3-(3-dimethylaminopropyl)carbodiimide hydrochloride (EDC) (ThermoFisher Scientific) and 10 mM N-Hydroxysulfosuccinimide sodium salt (sulfo-NHS) (Sigma-Aldrich) in water. The cynomolgus macaque CD8αβ protein diluted to […] in 10 mM sodium acetate buffer, pH 6.0, was allowed to be covalently captured for 300 s to an approximate threshold of 5 nm, and the sensors were subsequently deactivated with 1 M ethanolamine (ETA) (Sigma-Aldrich) solution, pH 8.5, for 300 s. The sensors were then rinsed in the kinetic buffer for 600 s. The rinse step was repeated for an additional 120 s for baseline calculation prior to the measurements of the binding kinetics. The antibody fragment was diluted into kinetic buffer via 3-fold dilution at concentrations ranging from 1000 nM to 1.37 nM. As above, the antigen-captured sensors were incubated in the diluted solutions to capture the Fab fragments for 1200 s to record the association phase. Sensors were subsequently incubated in the kinetic buffer for 1200 s to record the dissociation phase. The shaking speed for all steps was 1000 rpm and the temperature of the performed assays were at 30° C. The kinetic parameters were determined with 1:1 monovalent (Langmuir) binding model using the previous method.

In assay [7] the target is T1, human CD8αα homodimer, recombinant …. Kind of assay: BLI kinetic assay (told in the description; antigen not given). The method, then: as §1, §2
In assay [8] the target is T2, human CD8αβ heterodimer, recombinant …. The assay is described as above. The method, then:
as §1, §2

Assay [9] addresses T3, cynomolgus macaque CD8αα homodimer, …. Described as above. The method, then:
as §1, §2

Assay [10] has as its target T4, cynomolgus macaque CD8αβ heterodimer, …. Described as above. As to the method: as §1, §2
The target in assay [11] is T1, human CD8αα homodimer, recombinant …. Kind of assay: BLI kinetic rate analysis, Fab fragment (temperature not given). The method, then:
as §1

Assay [12] shares this target. Kind of assay: BLI kinetics, F(ab) on biotinylated CD8α (SA-XT sensor), 1:1 fit, 30 °C. The method, then:
as §1

Assay [13] shares this target. Kind of assay: BLI kinetics, F(ab) on biotinylated CD8α (SA-XT sensor), 1:1 fit, 37 °C [CONT'ED]. As to the method:
as §1

For assay [14], the target named is T3, cynomolgus macaque CD8αα homodimer, …. Briefly: BLI kinetic sensorgram, 1:1 global fit (legend: 30 °C; FIG. 2I prints 37 °C for the same constants). The method, then:
as §1, §2

In assay [15] the target is T1, human CD8αα homodimer, recombinant …. Kind of assay: BLI steady state analysis of the data of FIG. 2G. As to the method: (§4) To assess affinity of whole antibodies, steady state analysis was used as the bivalent nature of both whole antibody and CD8α complicates kinetic analysis. 50 nM CD8α-His (that is, CD8α with a C-terminal oligohistidine tag; Acro) was immobilized on Ni-NTA sensor probes. Binding was analyzed with a three-fold antibody dilutions series: 60 nM, 20 nM, 6.67 nM, 2.22 nM, 0.74 nM, and 0.25 nM. The antigen-loaded sensors were incubated in the diluted solutions to capture the whole IgG antibody for 300 s to record the association phase. Sensors were incubated in the kinetic buffer for 900 s to record the dissociation phase. The spin speed was 1000 rpm for all steps except the antigen loading step which was 400 rpm to control density of the antigen. The temperature of the performed assays was at 30° C. during the association and dissociation phases. The sensor data were baseline subtracted and further analyzed in GatorOne software (version 2.10) to determine the equilibrium dissociation constants (KD) of the antibodies by fitting the signals of the steady states to the 1:1 binding model.

For assay [16] the target is unchanged. Briefly: BLI steady state, whole hIgG1-LALAPA antibody on CD8α-His (Ni-NTA sensor), 30 °C. The method, then: as §4
For assay [17] the target is unchanged. Kind of assay: BLI, whole antibody.
The target is the same in assay [18]. Briefly: BLI kinetic rate KD on whole antibodies.
The target is the same in assay [19]. Briefly: BLI, whole antibody, steady state dissociation constant (column head x10^-9M). As to the method:
as §4

T1 sequence (P01732 22-182 limits assumed): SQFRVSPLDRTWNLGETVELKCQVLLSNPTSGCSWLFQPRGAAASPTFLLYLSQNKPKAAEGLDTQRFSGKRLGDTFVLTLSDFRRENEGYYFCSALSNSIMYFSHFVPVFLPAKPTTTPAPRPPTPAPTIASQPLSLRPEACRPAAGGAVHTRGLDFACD
T2 sequence (P01732 22-182 limits assumed, chain 1 of 2): as the sequence (P01732 22-182 limits assumed) above
T2 sequence (P10966 22-170 limits assumed, chain 2 of 2): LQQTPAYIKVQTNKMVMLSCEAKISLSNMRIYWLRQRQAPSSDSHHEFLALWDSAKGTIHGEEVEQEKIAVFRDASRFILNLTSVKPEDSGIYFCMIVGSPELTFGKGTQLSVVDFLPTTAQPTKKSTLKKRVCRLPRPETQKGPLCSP

B1: CBD1033 Fab (h1017-H2 / h1017-L2) (Fab, V domains shown)
VH: QVQLVQSGAEVKKPGASVKVSCKASRYTFTDYNLHWVRQAPGQGLEWMGFIYPYNGGTGYAQKFQGRVTMTVDTSTSTAYMELSSLRSEDTAVYYCARDHRYNEGVSFDYWGQGTTVTVSS
VL: DIQLTQSPSSLSASVGDRATITCRASESVDGFGNSFMNWYQQKPGKAPKLLIYLASNLESGVPSRFSGSGSGTDFTLTISSVQPEDFATYYCQQNNEDPYTFGQGTKLEIK
notes: Expressed as F(ab) fragment; also called CBD1033 Fab molecule
As usually defined, the Kd is the equilibrium constant for the complex coming apart. The term koff denotes a measure of how fast the partners let go of each other. The term kon denotes a measure of how fast the partners come together. Turning to B1, the Kd was 5.5 nM in assay [1]; 26.2 nM in [2]; 3.25 nM in assay [3]; 10.4 nM in [4]; 5.5 nM in [5]; 119 nM in assay [6]. For the same molecule, the Kd in [11] turned out to be 5.5 nM; in assay [12] it was 3.25 nM; in assay [13] it was 5.5 nM; in assay [14], 10.4 nM. In addition, the koff in assay [1] amounted to 0.000194 s⁻¹; in assay [2] it was 0.000653 s⁻¹; in assay [3] it was 0.000145 s⁻¹; in [4] it was 0.000264 s⁻¹; in assay [5], 0.000194 s⁻¹; in assay [6] it was 0.00199 s⁻¹. Besides, the koff amounted to 0.000195 s⁻¹ in assay [11], 0.000145 s⁻¹ in [12], 0.000194 s⁻¹ in [13] and 0.000264 s⁻¹ in assay [14]. In addition, the kon in assay [1] was found to be 35400 M⁻¹ s⁻¹; in assay [2], 25000 M⁻¹ s⁻¹; in assay [3], 44700 M⁻¹ s⁻¹; in assay [4], 25400 M⁻¹ s⁻¹; in [5] it was 35400 M⁻¹ s⁻¹; in assay [6], 16700 M⁻¹ s⁻¹. In addition, the kon was determined as 35400 M⁻¹ s⁻¹ in assay [11], 44700 M⁻¹ s⁻¹ in assay [12], 35400 M⁻¹ s⁻¹ in assay [13] and 25400 M⁻¹ s⁻¹ in assay [14]. Moreover, the “fold weaker binding affinity than CBD1017ch F(ab)” value in assay [7], in assay [8], in assay [9] and in [10] was 5 fold throughout.

B2: CBD1043 (antibody, human IgG1, kappa, L234A L235A, V domains shown)
VH: QVQLVQSGAEVKKPGASVKVSCKASRYTFTDYNLHWVRQAPGQGLEWIGFIYPYNGGTGYAQKFQGRVTITADTSTSTAYMELSSLRSEDTAVYYCARDHRYNEGVSFDYWGQGTLVTVSS
VL: EIVLTQSPGTLSLSPGERATLSCRASESVDGFGNSFMNWYQQKPGQAPRLLIYLASNLESGVPARFSGSGSGTDFTLTISRLEPEDFAVYYCQQNNEDPYTFGQGTKVEIKR
notes: also called CBD1043- hIgG1LALAPA; h1017-H7/L5 whole antibody
Take B2: the Kd in assay [15] and in assay [16] was 3.91 nM each time.

B3: CBD1383 whole antibody (VH N55D of CBD1033, deamidation mimic), Fc-silenced human IgG1 (antibody, V domains shown)
VH: QVQLVQSGAEVKKPGASVKVSCKASRYTFTDYNLHWVRQAPGQGLEWMGFIYPYDGGTGYAQKFQGRVTMTVDTSTSTAYMELSSLRSEDTAVYYCARDHRYNEGVSFDYWGQGTTVTVSS
VL: DIQLTQSPSSLSASVGDRATITCRASESVDGFGNSFMNWYQQKPGKAPKLLIYLASNLESGVPSRFSGSGSGTDFTLTISSVQPEDFATYYCQQNNEDPYTFGQGTKLEIKR
notes: also called 100% deamidation mimic
For B3, in assay [17], the koff stood at 0.00303 s⁻¹ and the kon stood at 1.1e+06 M⁻¹ s⁻¹. In [18], the “fold reduction of affinity compared to CBD1033” value is approximately 5.5 fold. Also, the Kd in assay [19] turned out to be 7.94 nM.

The values above are taken from patent US20250195685A1 (CAPSTAN THERAPEUTICS, published 2025).
